Results from patent US7790682B1, “Engineered human acidic fibroblast growth factors and associated methods” (The Florida State University Research Foundation, Inc., priority 2003, dated 2010).
“Also recorded” adds a separate entry of the source.

How the values were obtained:
NIH 3T3 fibroblasts = test: Cell proliferation (mitogenic activity) assay; type: cell-based; settings: NIH 3T3 fibroblasts; for EC50 (effective concentration for 50% maximal stimulation): 48 hours
Experimental: NIH 3T3 fibroblasts were initially plated in Dulbecco's modified Eagle's medium (DMEM) (American Type Culture Collection, Manassas Va.) supplemented with 10% (v/v) newborn calf serum (NCS) (Sigma, St. Louis Mo.), 100 units of penicillin, 100 μg streptomycin, 0.25 μg Fungizone™ and 0.01 mg/ml gentamicin (Gibco, Carlsbad Calif.) (“serum-rich” medium) in T75 tissue culture flasks (Fisher, Pittsburgh Pa.). The cultures were incubated at 37° C. and all cell growth was performed with 5% CO2 supplementation. At approximately 80% cell confluence, the cells were washed with 5 ml cold 0.14M NaCl, 5.1 mM KCl, 0.7 mM Na2HPO4 and 24.8 mM Trizma® base, pH 7.4 (TBS) and subsequently treated with 5 ml of a 0.025% trypsin solution (Invitrogen Corp., Carlsbad Calif.). Cell synchronization was initiated by serum starvation in DMEM with 0.5% NCS, 100 units of penicillin, 100 μg streptomycin, 0.25 μg Fungizone™ and 0.01 mg/ml gentamicin (“starvation” medium). The cells were seeded in T25 tissue culture flasks (Fisher, Pittsburgh, Pa.) at a cell density of 3.0×10^4 cells/cm^2 (representing ˜20% confluence). Duplicate flasks were used for each protein concentration. Cultures were incubated for 48 hours at 37° C., the medium was then decanted and replaced with fresh medium supplemented with the appropriate concentration of FGF-1 polypeptide, and incubated for an additional 48 hours. After this incubation, the medium was decanted and the cells were washed with 1 ml cold TBS pH 7.4. 1 ml of 0.025% trypsin was then added to release the cells from the flask surface, and 2 ml of serum-rich medium were added to dilute and inhibit the trypsin. The cells were counted using a hemocytometer (Hausser Scientific Partnership, Horsham Pa.). Experiments were performed in quadruplicate and the cell densities were averaged. The relationship between the cell number and log concentration of added growth factor was fit to a sigmoidal function.
Mitogenic activity towards NIH 3T3 fibroblasts was determined for WT*, SYM5, SYM5Δ104-106, SYM5Δ120-122, and SYM6ΔΔ mutants. […] The NIH 3T3 fibroblast proliferative activity of WT* FGF-1 yielded an effective concentration for 50% maximal stimulation (EC50) of 60 ng/ml (FIG. 3).

[1] = Heparin Sepharose affinity chromatography / heparin-binding affinity
Text: All studies herein disclosed utilized a synthetic gene for the 140 amino acid form of human FGF-1 with the addition of an amino-terminal six residue “His-tag” to facilitate purification using nickel nitrilotriacetic acid (Ni-NTA) affinity resin (QIAGEN, Valencia Calif.). The QuikChange® site-directed mutagenesis protocol (Stratagene, La Jolla Calif.) was used to introduce mutations, individually or in combination, using mutagenic oligonucleotides of 25 to 31 bases in length (Biomolecular Analysis Synthesis and Sequencing Laboratory, Florida State University). For deletions involving residues 104-106 and 120-122, mutagenic oligonucleotides were used to delete these positions as well as to simultaneously create point mutations Ala103 ? Gly and Arg119 ? Gly, respectively. […]
All mutant proteins, with the exception of the SYM6 mutant were expressed at levels similar to the WT* protein (i.e. ˜30-100 mg/L). […] Phe, and E280nm (0.1%, 1 cm)=1.31 for all deletion mutations (determined by dithionitrobenzoate titration of cysteine residues).
To quantify the reduced affinity for heparin (a polysulfonated polysaccharide) we determined the affinity for sucrose octasulfate, a structural mimic of a heparin dimer, by isothermal titration calorimetry. […]

**Q.** Which “EC50 (effective concentration for 50% maximal stimulation)” value (NIH 3T3 fibroblasts) does the source give for “WT*: Wild type (his-tagged) 140 amino acid form of human FGF-1, SEQ ID NO: 4 [reference compound]” here?
**A.** 0.06 mg/L

B1: SYM6/ΔΔ: SYM6 FGF-1 mutant plus both Δ104-106 and Δ120-122 deletion mutations, SEQ ID NO: 1 (protein)
chain: FNLPPGNYKKPKLLYCSNGGHFLRILPDGTVDGTRDRSDQHIQFQLSAESVGEVYIKSTETGQYLAIDTDGLVYGSQTPNEECLFLERLEENHYNTYISKKHGWFLGIKKNGSVKGTHYGQKAILFLPLPVSSD
modifications: Human FGF-1 mutant SYM6DD
**Q.** Which “heparin-binding affinity (in words)” value [1] does the source give for B1 here?
**A.** markedly reduced; also recorded: decreased heparin binding affinity

**Q.** And the “mitogenic activity in comparison to WT* (in words)” value (from here on “mitogenic activity in comparison”) (NIH 3T3 fibroblasts)?
**A.** almost two orders of magnitude more potent

**Q.** And the “EC50 (effective concentration for 50% maximal stimulation)” value (NIH 3T3 fibroblasts)?
**A.** 0.00084 mg/L

B2: SYM5/Δ104-106: SYM5 FGF-1 mutant plus Ala103→Gly/ΔGlu104/ΔLys105/ΔAsn106 (protein, UniProt P05230 16-155, looked up, variant L44F L73V V109L L111I C117V A103G del104-106)
Fibroblast growth factor 1: FNLPPGNYKKPKLLYCSNGGHFLRILPDGTVDGTRDRSDQHIQFQLSAESVGEVYIKSTETGQYLAMDTDGLVYGSQTPNEECLFLERLEENHYNTYISKKHGWFLGIKKNGSVKRGPRTHYGQKAILFLPLPVSSD
**Q.** Which “mitogenic activity in comparison” value (NIH 3T3 fibroblasts) does the source give for B2 here?
**A.** approximately two-fold less mitogenic activity

**Q.** What about the “EC50 (effective concentration for 50% maximal stimulation)” value (NIH 3T3 fibroblasts) of the same molecule?
**A.** 0.115 mg/L

B3: SYM5/Δ120-122: SYM5 FGF-1 mutant plus Arg119→Gly/ΔGly120/ΔPro121/ΔArg122, SEQ ID NO: 2 (protein)
chain: FNLPPGNYKKPKLLYCSNGGHFLRILPDGTVDGTRDRSDQHIQFQLSAESVGEVYIKSTETGQYLAMDTDGLVYGSQTPNEECLFLERLEENHYNTYISKKHAEKNWFLGIKKNGSVKGTHYGQKAILFLPLPVSSD
modifications: Human FGF-1 mutant SYM5D120-122
**Q.** Which “EC50 (effective concentration for 50% maximal stimulation)” value (NIH 3T3 fibroblasts) does the source give for B3 here?
**A.** 0.0021 mg/L

B4: SYM5: FGF-1 core mutant Leu44→Phe/Leu73→Val/Val109→Leu/Leu111→Ile/Cys117→Val (protein, UniProt P05230 16-155, looked up, variant L44F L73V V109L L111I C117V)
Fibroblast growth factor 1: FNLPPGNYKKPKLLYCSNGGHFLRILPDGTVDGTRDRSDQHIQFQLSAESVGEVYIKSTETGQYLAMDTDGLVYGSQTPNEECLFLERLEENHYNTYISKKHAEKNWFLGIKKNGSVKRGPRTHYGQKAILFLPLPVSSD
**Q.** Which “mitogenic activity in comparison” value (NIH 3T3 fibroblasts) does the source give for B4 here?
**A.** essentially identical results as WT*
